“And” between values parts separate entries of the source, which are not always exact repeats. Equal values may be shown once. Read-outs that look alike come from different tables or passages of the source. One block for each molecule: values may come before it. Ends that are not written are not given here.
Assays:
[1] = target: T1, Duffy Antigen Receptor for Chemokines (DARC) (human) (UniProt Q16570); assay: DARC binding; given as 'affinity constant'
T1 sequence (looked up): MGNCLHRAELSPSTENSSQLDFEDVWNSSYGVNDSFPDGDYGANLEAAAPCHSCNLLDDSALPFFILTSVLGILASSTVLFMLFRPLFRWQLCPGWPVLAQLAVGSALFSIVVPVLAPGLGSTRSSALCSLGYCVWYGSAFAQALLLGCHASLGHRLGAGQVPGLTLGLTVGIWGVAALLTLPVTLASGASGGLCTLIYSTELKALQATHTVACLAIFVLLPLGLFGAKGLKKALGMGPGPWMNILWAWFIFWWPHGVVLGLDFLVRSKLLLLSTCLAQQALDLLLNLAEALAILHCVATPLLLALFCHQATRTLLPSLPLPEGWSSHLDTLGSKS

[2] = target: T1, Duffy Antigen Receptor for Chemokines (DARC) (human); assay: estimated ka for binding to red blood cells divided by inhibitory ED50 (THP-1 migration)
[3] = target: chemokine receptors on THP-1 cells; assay: binding to chemokine receptors on THP-1 cells; given as 'association constant'
[4] = target: chemokine receptors on THP-1 cells; assay: cell-based or functional assay
[5] = target: T1, Duffy Antigen Receptor for Chemokines (DARC) (human); assay: ka for red blood cells divided by ED50
[6] = target: chemokine receptors on THP-1 cells; assay: cell-based or functional assay; remark: listed apart in the source
[7] = target: T1, Duffy Antigen Receptor for Chemokines (DARC) (human); assay: estimated ka for binding to red blood cells divided by average inhibitory ED50 (THP-1 migration)
[8] = target: chemokine receptors on THP-1 cells; assay: cell-based or functional assay; remark: listed apart in the source
[9] = target: T2, Duffy Antigen Receptor for Chemokines (DARC) (human), Q16570; assay: estimated ka for binding to red blood cells divided by average inhibitory ED50 (THP-1 migration); details: remark: other sources report otherwise
T2 chain: T1 sequence (looked up)

[10] = target: T3, Duffy Antigen Receptor for Chemokines (DARC) (human, UniProt Q16570 1-336); assay: DARC binding on red blood cells
T3 construct: whole, on cells
T3 sequence (looked up): T1 sequence (looked up)
Procedure: (§1) To overcome this difficulty, the ka for association of DARC with peptide 3(1–12)[MCP-1] (SEQ ID NO:1) and peptide 2(1–15)[MCP-1] […] After binding has reached equilibrium (30 minutes at 37° C.), the cells are separated from the unbound label by centrifugation for 5 minutes through a sucrose gradient. Counts associated with the cells are then determined by gamma-counting scintigraphy. […] Furthermore, Scatchard analysis confirms the presence of a single high affinity binding site with 500–1000 copies per cell, consistent with the known properties of DARC.

[11] = target: chemokine receptors on the surface of Jurkat cells; assay: biotinylated peptide binding to Jurkat cells
[12] = target: chemokine receptors on THP-1 cells; assay: biotinylated derivative mixed with THP-1 cells
[13] = target: T3, Duffy Antigen Receptor for Chemokines …; assay: ka for binding to red blood cells divided by ka for binding to THP-1 cells
[14] = target: chemokine receptors on THP-1 cells; assay: estimated ka for binding to THP-1 cells (competition binding analysis), printed under 'AVERAGE ED50 (µM)'
[15] = target: T4, Duffy Antigen Receptor for Chemokines (DARC) (human, UniProt Q16570 1-336); assay: DARC binding
T4 chain: T1 sequence (looked up)

[16] = target: T3, Duffy Antigen Receptor for Chemokines …; assay: Duffy binding
Procedure: as §1

[17] = target: T3, Duffy Antigen Receptor for Chemokines …; assay: competition binding analysis using red blood cells
Procedure: as §1

[18] = target: T3, Duffy Antigen Receptor for Chemokines …; assay: DARC binding
Procedure: as §1

Kd [1]: 15 µM | Duffy selectivity [2]: 22.3 | Kd [3]: 0.5 µM and 1 µM | % inhibition of migration induced by MCP-1 at 100 µM tripeptide [4]: 95% | % inhibition of migration induced by SDF1α at 100 µM tripeptide [4]: 29% | ED50 as inhibitor of MCP-1 induced THP-1 migration [4]: 2 to 5 µM | ED50 for inhibition of THP-1 migration induced by the one chemokine it is specific for (MCP-1) [4]: 6 µM | ED50 for inhibition of THP-1 migration versus MCP1 [4]: 7 µM
Molecule: Peptide 3(7-9)[MCP-1], i.e, KQK

Kd [1]: 2 µM | Duffy selectivity [5]: 10 | ED50 for inhibition of THP-1 migration versus IL8 [6]: < 1 µM | ED50 for inhibition of THP-1 migration versus MCP1 [6]: 8 µM | ED50 for inhibition of THP-1 migration versus MIP1α [6]: < 1 µM | ED50 for inhibition of THP-1 migration versus SDF1α [6]: < 1 µM | ED50 for inhibition of migration induced by IL-8 [6]: 1 µM | ED50 for inhibition of migration induced by MCP-1 [6]: 8 µM | ED50 for inhibition of migration induced by MIP1α [6]: 7.5 µM | ED50 for inhibition of migration induced by RANTES [6]: 1.5 µM | ED50 for inhibition of migration induced by SDF1α [6]: 2 µM | average ED50 for inhibition of THP-1 migration induced by each of the chemokines [6]: 2 µM | Duffy selectivity [7]: 24.8
Molecule: WVQ [Peptide 3(10-12)[MCP-1], i.e., WVQ]

% inhibition of THP-1 migration at 100 µM versus IL8 [8]: 103% | % inhibition of THP-1 migration at 100 µM versus MCP-1 [8]: 112% | % inhibition of THP-1 migration at 100 µM versus MIP1α [8]: 99% | % inhibition of THP-1 migration at 100 µM versus SDF-1α [8]: 107% | ED50 for inhibition of THP-1 migration versus IL8 [8]: 14 µM | ED50 for inhibition of THP-1 migration versus MCP-1 [8]: 8 µM | ED50 for inhibition of THP-1 migration versus MIP1α [8]: 8 µM | ED50 for inhibition of THP-1 migration versus SDF-1α [8]: 10 µM | average ED50 for inhibition of THP-1 migration induced by each of the chemokines [8]: 10 µM | inhibition of MCP-1 induced THP-1 migration at 100 µM, peptide incubated with the cells [8]: > 99% | inhibition of MCP-1 induced THP-1 migration at 100 µM, peptide incubated with the chemokine [8]: 17% | Duffy selectivity [9]: 1
Molecule: EICADPKQKWVQ [peptide 3(1-12)[MCP-1]]

Kd [10]: ~50 µM
Molecule: SYRRITSSK [Peptide 2(1-9)[MCP-1]]

Kd [11]: 3 µM | Kd [12]: 1.9 µM
Molecule: SYRRITSSKCPKEAV (also: biotinylated, position not given here) [biotinylated peptide 2(1-15)[MCP-1]]

Duffy selectivity [13]: 0.18 ratio | Kd [14]: 2 µM | Kd [15]: 0.35 µM | Kd [16]: 100 µM | Kd [17]: < 0.5 µM | ED50 for inhibition of chemokine-induced THP-1 migration [8]: > 100 µM | inhibition of chemokine-induced THP-1 migration at 100 µM [8]: 19% | promotion of THP-1 migration (agonist activity) [8]: 10 µM
B1: peptide 2(1-15)[MCP-1] (peptide)
peptide: SYRRITSSKCPKEAV
notes: synthetic linear L-form peptide; also called Pep2[MCP1]; Pep2(1-15)[MCP1]

Kd [18]: 20 to 100 µM
Molecule: SYRRITSSKSPKEAV [Ser10 variant of peptide 2(1-15)[MCP-1]]

From patent publication US7067117 (CAMBRIDGE UNIVERSITY TECHNICAL SERVICES, dated 2006)
